In this assay the target is T1, fluorescently labeled Qc-SNARE Vam7 (yeast, UniProt P32912 1-316, labeled with a fluorophore distinct from that of Qb).
T1 sequence: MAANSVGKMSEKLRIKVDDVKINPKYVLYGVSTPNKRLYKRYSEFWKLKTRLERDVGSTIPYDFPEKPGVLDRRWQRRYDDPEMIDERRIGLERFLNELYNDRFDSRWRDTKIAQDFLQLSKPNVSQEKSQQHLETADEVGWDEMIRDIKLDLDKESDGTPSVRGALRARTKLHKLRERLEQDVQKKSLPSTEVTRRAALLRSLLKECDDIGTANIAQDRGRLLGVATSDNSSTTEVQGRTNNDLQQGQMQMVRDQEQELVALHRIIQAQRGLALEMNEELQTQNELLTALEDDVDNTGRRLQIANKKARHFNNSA
The experiment in a line: FRET or BRET. On the technique in general: BRET reads energy transfer from a luciferase to a nearby fluorophore.

B1: fluorescent Qb-SNARE domain (cysteine-tagged synthetic SNARE domain of the Qb-SNARE Vti1) (domain or fragment)
chain: HAILQKSGDRLKDASRIANETEGIGSQIMMDLRSQRETLENARQTLFQADSYVDKSIKTLKTM
modifications: also: cysteine tag with fluorophore (Alexa-568), tag not in given chain
B1: the “fold faster FRET with sQa than without sQa” value worked out at 100 fold.

For the origin of these results see article PMC8693972 (Molecular Biology of the Cell, 2021).
